For experiment [1], the target named is T1, human IgE (human, UniProt P01854 1-546, FITC-, biotin- or 125I-labelled in some assays). The experiment in a line: soluble receptor ELISA, ratio of 50% inhibition concentrations.
Experiment [2] addresses T1, human IgE. Described as above. The source holds these as a separate data set.
For experiment [3], the target named is membrane IgE on U266B1 cells (human, UniProt P01854 1-546). The experiment in a line: FACS on membrane IgE+ U266B1 cells.
Experiment [4] concerns the target T1, human IgE. The experiment in a line: FACS, blocking of FITC-IgE binding to FcεRII (CD23) on IM9 cells.

The source of these data is US20030149244A1 (Genentech, published 2003).

T1 sequence (P01854 whole entry): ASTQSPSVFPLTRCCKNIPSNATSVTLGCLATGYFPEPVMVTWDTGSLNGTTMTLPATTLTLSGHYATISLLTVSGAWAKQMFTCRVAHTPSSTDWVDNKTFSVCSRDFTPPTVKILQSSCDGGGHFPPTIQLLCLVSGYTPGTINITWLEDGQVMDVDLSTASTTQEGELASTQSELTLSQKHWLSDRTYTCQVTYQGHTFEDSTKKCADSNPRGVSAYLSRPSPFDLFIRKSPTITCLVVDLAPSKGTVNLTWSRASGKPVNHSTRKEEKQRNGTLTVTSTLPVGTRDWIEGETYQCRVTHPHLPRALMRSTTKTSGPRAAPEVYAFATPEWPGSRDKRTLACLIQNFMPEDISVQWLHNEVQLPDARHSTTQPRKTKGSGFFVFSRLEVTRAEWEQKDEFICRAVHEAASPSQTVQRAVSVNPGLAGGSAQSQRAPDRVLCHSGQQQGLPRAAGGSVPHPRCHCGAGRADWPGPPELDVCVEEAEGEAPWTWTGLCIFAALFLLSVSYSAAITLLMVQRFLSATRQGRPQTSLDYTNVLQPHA
membrane IgE on U266B1 cells, sequence (P01854 whole entry, one chain of several): as the sequence (P01854 whole entry) above

B1: MaE11 (antibody, mouse IgG1, V domains shown)
VH: DVQLQESGPGLVKPSQSLSLACSVTGYSITSGYSWNWIRQFPGNKLEWMGSITYDGSSNYNPSLKNRISVTRDTSQNQFFLKLNSATAEDTATYYCARGSHYFGHWHFAVWGAGTTVTVSS
VL: DIQLTQSPASLAVSLGQRATISCKASQSVDYDGDSYMNWYQQKPGQPPILLIYAASYLGSEIPARFSGSGSGTDFTLNIHPVEEEDAATFYCQQSHEDPYTFGAGTKLEIK
notes: murine IgG1; also called murine MaE11; MeE11
As to B1, in the experiment with human IgE [1], the “ratio F(ab)-X / F(ab)-2” value was 0.03 and the “ratio F(ab)-X / MaE11” value amounted to 1. Further, in the experiment with human IgE [2], the “ratio Variant X / IgG1-2” value was determined as 0.06 and the “ratio Variant X / MaE11” value turned out to be 1.

B2: MaE13 (antibody, V domains shown)
VH: DVQLQESGPGLVKPSQSLSLTCTVTGYTITSDNAWNWIRQFPGNKLEWMGYINHSGTTSYNPSLKSRISITRDTSKNQFFLQLNSVTTEDTATYYCAWVVAYAMDYWGQGTSVTVSS
VL: DIVMTQSQKFMSTSVGDRVSVTCKASQNVSSNVAWYQQKPGQSPKALIYSASYRYSGVPDRFTGSGSGTDFTLTISNVQSEDLAEYFCQQYYTYPLYTFGGGTKLEIK
What is called EC50 is the concentration that produces a half-maximal response. Low values mean an effect from little substance, high ones a need for much substance. For B2, the EC50 in experiment [3] amounted to 1 µg/mL; with human IgE [4], 0.7 µg/mL.

B3: MaE15 (antibody, V domains shown)
VH: DVQHQESEPDLVKPSQSLSLTCTVTGYSITSGYNRHWIRQFPGNKLEWMGYIHYSGSTNYNPSLKRRISITRDTSKNQFFLQLNSVTTEDTATYYCARGSIYYYGSRYRYFDVWGAGTTVTVSS
VL: DIQLTQSPASLAVSLGQRATISCKASQSVDYDGDSYMNWYQQKPGQPPKLLIYAASNLESGIPARFSGSGSGTDFTLNIHPVEEEDAATYYCQQSNEDPFTFGAGT
On to B3, for which the EC50 in experiment [3] is 6 µg/mL; in the experiment with human IgE [4], 0.6 µg/mL.
